Laboratory results: US20070192884A1
Several values for one entry are separate records, joined by “and”; a condition that tells them apart may be missing. Equal entries are not always repeated.

Assays:
[1] = target: TAT-038 as carried by human tumor cell lines (H1299, PC-3, K562, HL-60) (human) (UniProt P15144); experiment: flow cytometry, PC3 human tumor cells
[2] = target: TAT-038 as carried by human tumor cell lines (H1299, PC-3, K562, HL-60) (human) (UniProt P15144); experiment: flow cytometry, K562 human tumor cells
[3] = target: TAT-038 as carried by human tumor cell lines (H1299, PC-3, K562, HL-60) (human) (UniProt P15144); experiment: flow cytometry, PC-3 human tumor cells
[4] = target: TAT-038 as carried by human tumor cell lines (H1299, PC-3, K562, HL-60) (human) (UniProt P15144); experiment: flow cytometry, H1299 human tumor cells
[5] = target: TAT-038 as carried by human tumor cell lines (H1299, PC-3, K562, HL-60) (human) (UniProt P15144); experiment: flow cytometry, HL-60 human tumor cells
[6] = target: TAT-038 (full-length, cloned from human placenta cDNA, expressed from phCMV1-TAT-038 in stable 293G and BaF3 cells) (human) (UniProt P15144); experiment: flow cytometry, 293G cells stably expressing TAT-038 (293G-ANPEP)
[7] = target: TAT-038 (full-length, cloned from human placenta cDNA, expressed from phCMV1-TAT-038 in stable 293G and BaF3 cells) (human) (UniProt P15144); experiment: flow cytometry, BaF3 cells stably expressing TAT-038 (BAF3 ANPEP)

Mouse monoclonal antibody WM15 (BD Pharmingen, cat#555393)
geometric mean fluorescence [1]: 125 | geometric mean fluorescence [2]: 7 and 9 | geometric mean fluorescence [3]: 47 | geometric mean fluorescence [4]: 4 | geometric mean fluorescence [5]: 23 | geometric mean fluorescence [6]: 221 | geometric mean fluorescence [7]: 59.3
